The results in this text go back to US20210388087A1 (Chugai, published 2021).

Numbering of substitutions follows the chain as printed. Where no end group is shown, it is not given here.

T1: cyno CD137-Fc (cynomolgus monkey; human, limits assumed, biotin-labeled)
T1 construct: whole entry 92 named; also called biotin-labeled cynomolgus monkey CD137 fused to human IgG1 Fc fragment; not shown: human IgG1 Fc fragment
T1 chain: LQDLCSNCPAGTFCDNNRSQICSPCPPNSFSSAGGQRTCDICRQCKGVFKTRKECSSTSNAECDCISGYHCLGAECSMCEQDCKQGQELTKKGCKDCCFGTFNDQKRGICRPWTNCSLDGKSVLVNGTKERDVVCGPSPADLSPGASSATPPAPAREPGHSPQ

T2: Biotin-labeled CD3 epsilon peptide antigen (human, also: biotin-labeled, site not given here)
T2 construct: also called CD3 peptide
T2 peptide: QDGNEEMGGITQTPY

T3: cyno CD137 (cynomolgus monkey, UniProt Q07011 24-186 (human entry), limits assumed)
T3 construct: also called cynomolgus monkey CD137
T3 chain: T1 chain

B1: DADU01_3#002 (antibody, V domains shown)
VH: QVQLVESGGGLVQPGRSLRLSCAASGFTFSNAWMHWVRQAPGKGLEWVAQIKDKQNLYNAYYAESVKGRFTISRDDSKNSIYLQMNSLKTEDTAVYYCHYVHYASASTVLPAFGVDAWGQGTTVTVSS
VL: DIVMTQSPLSLPVTPGEPASISCRSSQSLVHSNRNTYLHWYQQKPGQAPRLLIYKVSNRFSGVPDRFSGSGSGTDFTLKISRVEAEDVGVYYCGQGTQVPYTFGQGTKLEIK
notes: Human IgG1; light chain GLS3000 (kappa); also called dBBDu124
B2: DXDU01_3#019 (antibody, V domains shown)
VH: QVQLVESGGGLVQPGRSLRLSCAASGFTFSIAWMHWVRQAPGKGLEWVAQIKDKVNGYTAYYAESVKGRFTISRDDSKNSIYLQMNSLKTEDTAVYYCRYVHYAAYYDVLGYGGVDAWGQGTTVTVSS
VL: B1 VL
notes: Human IgG1; light chain GLS3000 (kappa); also called dBBDu125
B3: DADU01_3#018 (antibody, V domains shown)
VH: B1 VH with K54R, Q55A, L57S, E64P, A104S, S105A, V109L, A112S
VL: B1 VL
notes: Human IgG1; light chain GLS3000 (kappa); also called dBBDu123
B4: dBBDu189/L119 (antibody, V domains shown)
VH: QVQLVESGGGLVQPGRSLRLSCAASGFTFSNAWMHWVRQAPGKGLEWIAQIKDRSNQYATYYAPSVKGRFTISRDDSKNSIYLQMNSLKTEDTAVYYCHYVHYAQASSLLPSFGVDAWGQGTTVTVSS
VL: DIVMTQSPLSLPVTPGEPASISCTASQELVHINRFIFLHWYQQKPGQAPRLLIYKVSNRFIGVPDRFSGSGSGTDFTLKISRVEAEDVGVYYCAQGSQVPFTFGQGTKLEIK
notes: IgG format; constant regions not specified
B5: dBBDu193/L132 (antibody, V domains shown)
VH: B4 VH with I48V, A104S, Q105A, S108T
VL: B4 VL with T24Q, A25T, Q27E, I61S, S97T, Q98S
notes: IgG format; constant regions not specified; also called dBBDu_193 dBBDu.L132
B6: dBBDu193/L127 (antibody, V domains shown)
VH: B4 VH with I48V, A104S, Q105A, S108T
VL: B4 VL with T24R, Q27E, V30L, F35H, S57Y, I61T, S97T, Q98S
notes: IgG format; constant regions not specified; also called dBBDu_193 dBBDu.L127
B7: dBBDu186/L106 (antibody, V domains shown)
VH: B4 VH with I48V, S108T, L109V, S112A
VL: B4 VL with T24S, A25T, Q27E, V30L, S57A, I61M
notes: as for B4
B8: dBBDu186/L108 (antibody, V domains shown)
VH: B4 VH with I48V, S108T, L109V, S112A
VL: B4 VL with T24R, A25T, Q27E, V30L, I36T, I61M, Q98A
notes: as for B4
B9: dBBDu189/L126 (antibody, V domains shown)
VH: B4 VH
VL: B4 VL with T24R, A25T, Q27E, V30L, F35Y, S57Q, I61S, Q98A
notes: as for B4
B10: anti-human CD137 antibody described in WO2005/035584A1 (abbreviated as B) (antibody, V domains shown)
VH: QVQLQQWGAGLLKPSETLSLTCAVYGGSFSGYYWSWIRQSPEKGLEWIGEINHGGYVTYNPSLESRVTISVDTSKNQFSLKLSSVTAADTAVYYCARDYGPGNYDWYFDLWGRGTLVTVSS
VL: EIVLTQSPATLSLSPGERATLSCRASQSVSSYLAWYQQKPGQAPRLLIYDASNRATGIPARFSGSGSGTDFTLTISSLEPEDFAVYYCQQRSNWPPALTFGGGTKVEIK
notes: Control antibody; also called control anti-CD137 antibody

The first experiment addresses T1, cyno CD137-Fc. The experiment is described as follows: bead ELISA, IgG on biotinylated antigen, luminescence.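 Note: biotinylated antigen captured on streptavidin magnetic beads, then incubated with purified IgG at 50 ng/µL for 1 h at room temperature before detection.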
Consider B1, for which the RLU came out at 10800 RLU and the “S/N ratio (cyno CD137-Fc/Fc)” value is 5.6.
Turning to B2, the RLU came to 5090 RLU and the “S/N ratio (cyno CD137-Fc/Fc)” value turned out to be 1.56.
The like results for B3 were, in that order, 6200 RLU and 3.27.

The target of another experiment is T4, human CD137-Fc (human, biotin-labeled).
T4 construct: if 90 already holds the Fc, drop the second piece; also called biotin-labeled human CD137 fused to human IgG1 Fc fragment; biotin-human CD137-Fc; not shown: human IgG1 Fc fragment
The experiment is described as above.
With B1, the RLU came to 39100 RLU and the “S/N ratio (human CD137-Fc/Fc)” value is 20.3.
On to B2, for which the RLU stood at 77800 RLU and the “S/N ratio (human CD137-Fc/Fc)” value was found to be 23.8.
For B3, the RLU came out at 32800 RLU and the “S/N ratio (human CD137-Fc/Fc)” value was determined as 17.3.

The target in a further experiment is T5, biotin-labeled human CD137 fused to human IgG1 Fc fragment (human, biotin-labeled).
T5 construct: also called human CD137-Fc; biotin-human CD137-Fc; not shown: human IgG1 Fc fragment
The experiment can be described thus: competitive ELISA on biotin-human CD137-Fc; free Fc 62.5 pmol (control).
On to B4, for which the ELISA signal worked out at 88100.
Same read-out and setting: to B5 belongs 116000; to B6, 6080; to B7, 9860.
B8 displayed an ELISA signal of 83600.
Still for that read-out and setting: to B9 belongs 75100.

In the next experiment the target is T4, human CD137-Fc. The experiment is described as follows: bead ELISA on biotin-human CD137-Fc, 0 pmol free CD3e peptide.
B10 displayed an ELISA signal of 99400.
B1 showed an ELISA signal of 6620.
The molecule B2 had an ELISA signal of 61400.
Turning to B3, the ELISA signal turned out to be 2750.

The target in another experiment is T4, human CD137-Fc. The experiment is described as follows: bead ELISA on biotin-human CD137-Fc, free CD3e peptide vs free Fc.
Consider B10, for which the Signal decrease worked out at 0.94%.
Take B1: the Signal decrease turned out to be 93.6%.
Same read-out and setting: to B2 belongs 92.5%; to B3, 92.3%.

Another experiment addresses T5, biotin-labeled human CD137 fused to …. The experiment is described as follows: competitive ELISA on biotin-human CD137-Fc; free CD3e vs free Fc.
As to B4, the Signal decrease was found to be 76.9%.
B5: the Signal decrease is 91%.
Molecule B6 showed a Signal decrease of 59.4%.
Turning to B7, the Signal decrease was 68.7%.
Turning to B8, the Signal decrease worked out at 39.2%.
Still for that read-out and setting: as for B9, the figure is 87%.

In a further experiment the target is T4, human CD137-Fc. The experiment can be described thus: bead ELISA on biotin-human CD137-Fc, 125 vs 0 pmol free CD3e peptide.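 Note: target captured on streptavidin-coated magnetic beads, signal read as fluorescence 2 min after adding APS-5 substrate.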
Consider B10, for which the Signal decrease was 1.26%.
Same read-out and setting: as for B1, the figure is 68%.
In turn, B2 showed a Signal decrease of 96.7%.
The molecule B3 showed a Signal decrease of 33%.

The next experiment has as its target T2, Biotin-labeled CD3 epsilon peptide …. The experiment is described as follows: bead ELISA, IgG on biotinylated CD3 epsilon peptide, luminescence.
On to B1, for which the RLU is 174000 RLU and the “S/N ratio (CD3 peptide/non coating)” value is 156.
Turning to B2, the RLU amounted to 191000 RLU and the “S/N ratio (CD3 peptide/non coating)” value came out at 161.
As to B3, the RLU stood at 182000 RLU and the “S/N ratio (CD3 peptide/non coating)” value turned out to be 149.

For a further experiment, the target named is T4, human CD137-Fc. The experiment can be described thus: bead ELISA on biotin-human CD137-Fc with 62.5 pmol free CD3e peptide as competitor.
With B10, the ELISA signal came out at 183000.
For the molecule B1, the ELISA signal came to 9970.
B2 displayed an ELISA signal of 12800.
On to B3, for which the ELISA signal was determined as 9020.

The next experiment has as its target human CD137 (human, UniProt Q07011 24-186). The experiment can be described thus: SPR Biacore T200, IgG captured on protein A, 25 C.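 Note: antigens diluted in ACES running buffer at pH 7.4 were flowed over antibodies held on a CM3 chip bearing amine-coupled protein A, with buffer alone serving as blank.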
Turning to B4, the Kd is 2.71 µM, the koff is 0.000402 s⁻¹ and the kon worked out at 148 M⁻¹ s⁻¹.
For the molecule B5, binding was put at a Kd of 4.48 µM, the koff worked out at 0.00211 s⁻¹ and the kon is 471 M⁻¹ s⁻¹.
B6 registered a Kd of 3.3 µM, a koff of 0.00145 s⁻¹ and a kon of 440 M⁻¹ s⁻¹.
Consider B7, for which the affinity, expressed as Kd, was 3.44 µM; the koff amounted to 0.000447 s⁻¹; the kon turned out to be 130 M⁻¹ s⁻¹.
B8 gave a Kd of 2.41 µM, a koff of 0.00081 s⁻¹ and a kon of 335 M⁻¹ s⁻¹.
B9 showed a Kd of 0.513 µM, a koff of 0.000688 s⁻¹ and a kon of 1340 M⁻¹ s⁻¹.

For another experiment, the target named is human CD3 ed (human, UniProt P07766 23-126; P04234 22-105, limits assumed). The experiment is described as follows: SPR Biacore T200, IgG captured on protein A, 25 C.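 Note: antigens diluted in ACES running buffer at pH 7.4 were flowed over antibodies held on a CM3 chip bearing amine-coupled protein A, with buffer alone serving as blank.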
As to B4, the Kd was 2.06 µM, the koff turned out to be 0.0258 s⁻¹ and the kon came out at 12500 M⁻¹ s⁻¹.
B5 came in with a Kd of 2.03 µM, a koff of 0.0201 s⁻¹ and a kon of 9890 M⁻¹ s⁻¹.
B6 displayed a Kd of 1.51 µM, a koff of 0.0191 s⁻¹ and a kon of 12600 M⁻¹ s⁻¹.
In turn, B7 gave a Kd of 3.09 µM, a koff of 0.0318 s⁻¹ and a kon of 10300 M⁻¹ s⁻¹.
As for B8, the Kd was 3.01 µM, the koff worked out at 0.0408 s⁻¹ and the kon came to 13600 M⁻¹ s⁻¹.
Molecule B9 gave a Kd of 2.57 µM, a koff of 0.0281 s⁻¹ and a kon of 10900 M⁻¹ s⁻¹.

The target in another experiment is T3, cyno CD137. The experiment can be described thus: SPR Biacore T200, IgG captured on protein A, 25 C.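 Note: antigens diluted in ACES running buffer at pH 7.4 were flowed over antibodies held on a CM3 chip bearing amine-coupled protein A, with buffer alone serving as blank.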
As to B4, binding was characterised by a dissociation constant (Kd) of 35.7 µM and the koff turned out to be 0.00122 s⁻¹.
On to B5, for which the Kd is 757 µM and the koff was found to be 0.0061 s⁻¹.
For the molecule B6, the Kd worked out at 28.1 µM, the koff stood at 0.00316 s⁻¹ and the kon was 112 M⁻¹ s⁻¹.
Regarding B7, the Kd was determined as 61.3 µM and the koff was determined as 0.00126 s⁻¹.
Molecule B8 displayed a Kd of 16.1 µM, an off-rate (koff) of 0.00361 s⁻¹ and a kon of 225 M⁻¹ s⁻¹.
On to B9, for which binding was characterised by a dissociation constant (Kd) of 3.06 µM, the koff amounted to 0.00247 s⁻¹ and the kon is 807 M⁻¹ s⁻¹.

The target in a further experiment is T5, biotin-labeled human CD137 fused to …. The experiment is described as follows: competitive ELISA on biotin-human CD137-Fc; competitor free CD3e 62.5 pmol.
With B4, the ELISA signal turned out to be 20400.
On to B5, for which the ELISA signal was determined as 10400.
The molecule B6 gave an ELISA signal of 2470.
On the same count and under the same terms, as for B7, the figure is 3090.
Consider B8, for which the ELISA signal amounted to 50800.
B9 displayed an ELISA signal of 9750.

For another experiment, the target named is T4, human CD137-Fc. The experiment can be described thus: bead ELISA on biotin-human CD137-Fc with 62.5 pmol free human Fc (control competitor).
Regarding B10, the ELISA signal was 184000.
In turn, B1 had an ELISA signal of 155000.
Turning to B2, the ELISA signal is 172000.
On the same count and under the same terms, to B3 belongs 117000.

The next experiment has as its target T4, human CD137-Fc. The experiment is described as follows: bead ELISA on biotin-human CD137-Fc with 125 pmol/well free CD3e peptide as competitor.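 Note: Streptavidin-coated magnetic beads in blocking buffer as the capture surface, well signal read as fluorescence 2 min after adding APS-5 substrate.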
Molecule B10 showed an ELISA signal of 98100.
B1 registered an ELISA signal of 2120.
B2 had an ELISA signal of 2060.
On to B3, for which the ELISA signal amounted to 1840.
